The test system of data set [1] is Human Acute Lymphoblastic Leukemia blasts in NSG mice. The following applies: for bodyweight: NSG mice, ibrutinib 25 mg/kg oral daily 9 days, ONCASPAR 300 IU/kg IV days 1, 4, 7. On the procedure: Procedure. The experimental design is schematized in FIG. 7A. Briefly, thirty-two (32) NOD.Cg-Prkdcscid I2rgtm1Wjl/SzJ (“NSG”) mice were injected intrafemorally with 500,000 leukemic blasts (2 injections/mouse) (Human Acute Lymphoblastic Leukemia). […] During and after treatment, mice were weighed weekly, and their welfare was evaluated daily. Blood samples were taken weekly for assessment of the leukemia burden. Termination was predefined with a leukemia burden reaching 50% leukemic blasts in peripheral blood as measured by flow cytometry or euthanasia because of overt signs of discomfort due to disease.
The primary outcome of this experiment was event-free survival, where event was defined as […]. Differences in event-free survival were analyzed using a Kaplan-Meier plot and significance was tested using the log-rank test.

For data set [2], the system named is HBP-ALL cells. Description: T-ALL cell line viability and cell death by amine exposure. The settings on record: 3 or 7 days. Format: cell-based, human.
For data set [3], the system named is LOUCY cells. Described as above. The settings on record: 3 or 7 days. Format: cell-based, human.
Data set [4] has as its system 30 cell lines covering a variety of cancer cell types. Description: ApoTox-Glo Triplex Assay (viability, cytotoxicity, apoptosis), 3-4 days, panel. It is filed as cell-based. The settings on record: in still other cases. On the procedure:
Two incubation times were tested. […] Ibrutinib was the AADAS as detailed above.
Cell culture conditions. Adherent tumor cells were grown as monolayer at 37° C. in a humidified atmosphere (5% CO2, 95% air). […] The cells were counted and their viability assessed by 0.25% trypan blue exclusion assay.
Cell plating for 3 to 4 day incubation.
Each compound was tested alone at 6 doses.
Experiments were performed in duplicate.
Two protocols of incubation were performed: overnight and over 3/4 days as indicated.
The assay was performed as recommended by the manufacturer. […] The assay was performed as recommended by the manufacturer. […] Apoptosis was measured in luminescence.

For the molecule `C=CC(=O)N1CCC[C@@H](n2nc(-c3ccc(Oc4ccccc4)cc3)c3c(N)ncnc32)C1` [ibrutinib, reference compound], in data set [1], the bodyweight entry is “mild and transient drop in bodyweight”. For the same molecule, the “mice that reached the termination point (>50% leukemic blasts) after 10 weeks” value in data set [1] (weeks after transplantation) was 4/7.

B1: PEG-Asparaginase: E. coli-derived peg-conjugated ASNase, used in the in vivo studies (protein, UniProt P00805 23-348, looked up)
L-asparaginase 2: LPNITILATGGTIAGGGDSATKSNYTVGKVGVENLVNAVPQLKDIANVKGEQVVNIGSQDMNDNVWLTLAKKINTDCDKTDGFVITHGTDTMEETAYFLDLTVKCDKPVVMVGAMRPSTSMSADGPFNLYNAVVTAADKASANRGVLVVMNDTVLDGRDVTKTNTTDVATFKSVNYGPLGYIHNGKIDYQRTPARKHTSDTPFDVSKLNELPKVGIVYNYANASDLPAKALVDAGYDGIVSAGVGNGNLYKSVFDTLATAAKTGTAVVRSSRVPTGATTQDAEVDDAKYGFVASGTLNPQKARVLLQLALTQTKDPQQIQQIFNQY
modifications: PEG conjugate (pegaspargase)
As to B1, the bodyweight result in data set [1] is given as “strong but transient weight loss”. In addition, in data set [1] (human leukemic blasts in blood by flow cytometry), the leukemia development result is on record as “stronger delay in leukemia development”.

B2: …®: recombinantly produced E. coli ASNase, NCBI Ref Seq WP_000394140.1, ATC Code L01XX02 (protein, UniProt P00805 23-348, looked up)
L-asparaginase 2: LPNITILATGGTIAGGGDSATKSNYTVGKVGVENLVNAVPQLKDIANVKGEQVVNIGSQDMNDNVWLTLAKKINTDCDKTDGFVITHGTDTMEETAYFLDLTVKCDKPVVMVGAMRPSTSMSADGPFNLYNAVVTAADKASANRGVLVVMNDTVLDGRDVTKTNTTDVATFKSVNYGPLGYIHNGKIDYQRTPARKHTSDTPFDVSKLNELPKVGIVYNYANASDLPAKALVDAGYDGIVSAGVGNGNLYKSVFDTLATAAKTGTAVVRSSRVPTGATTQDAEVDDAKYGFVASGTLNPQKARVLLQLALTQTKDPQQIQQIFNQY
In the case of B2, the “sensitivity, cell death by amine exposure” value in data set [2] and in data set [3] was “extremely sensitive” each time. The “resistance of the cells” value in data set [4] was “somewhat resistant”.
